The nature of the series: label from the status in PepcDB records.
Consider “MAISKDLYPSQEDLLYEEELLRNQFSLKLWWRYLIAKAESPFKKRFIIYERALKALPGSYKLWYAYLRERLDIVRNLPVTHPQYDSLNNTFERGLVTMHKMPRIWVMYLQTLTVQQLITRTRRTFDRALCALPVTQHDRIWEPYLVFVSQNGIPIETSLRVYRRYLMYDPSHIEEFIEFLVKSERWQESAERLASVLNDDKFYSIKGKTKHKLWLELCELLVHHANVISGLNVDAIIRGGIRKFTDEVGMLWTSLADYYIRKNLLEKARDIYEEGMMKVVTVRDFSVIFDVYSRFEESTVAKKMEMMSSSDEEDENEENGVEDDEEDVRLNFNLSVKELQRKILNGFWLNDDNDVDLRLARLEELMNRRPALANSVLLRQNPHNVEQWHRRVKIFEGNAAKQILTYTEAVRTVDPMKAVGKPHTLWVAFAKLYENHKDLVNTRVIFDKAVQVNYKTVDHLASVWCEWAEMELRHKNFKGALELMRRATAVPTVEVRRRVAADGNEPVQMKLHRSLRLWSFYVDLEESLGTLESTRAVYEKILDLRIATPQIIMNYAFLLEENKYFEDAFKVYERGVKIFKYPHVKDIWVTYLTKFVKRYGKTKLERARELFEHAVSMAPSDAVRTLYLQYAKLEEDYGLAKRAMKVYEEATKKVPEGQKLEMYEIYISRAAEIFGVPRTREIYEQAIESGLPHKDVKIMCIKFAELERSLGEIDRARALYKYSSQFADPRSDPEFWNKWHEFEVQHGNEDTYREMLRIKRSVSASYSQTHFILPENMMQKDKLLDVEDAKGELKRAGLPEDEMAALERQLLSTTTPTEPAKDGGRRVGFVSAGVISQSGENEGKPVTGNGEDIELPDESDDESDGDDHVEISQKEVPAAVFGGLARKRDEDGEEAGEDGAAQKLGALERIKRQKLNQ”, for which the protein production result was “failed”.

As for “MAKAGGITNAVNVGIAVQADWENREFISHISLNVRRLFEFLVQFGKPHSLTYFSVLGFEFN”, the protein production result is “failed”.

Take “MAKEVVYRGSARQRMMQGIEILARAAIPTLGATGPSVMIQHRADGLPPISTRDGVTVANSIVLKDRVANLGARLLRDVAGTMSREAGDGTTTAIVLARHIAREMFKSLAVGADPIALKRGIDRAVARVSEDIGARAWRGDKESVILGVAAVATKGEPGVGRLLLEALDAVGVHGAVSIELGQRREDLLDVVDGYRWEKGYLSPYFVTDRARELAELEDVYLLMTDREVVDFIDLVPLLEAVTEAGGSLLIAADRVHEKALAGLLLNHVRGVFKAVAVTAPGFGDKRPNRLLDLAALTGGRAVLEAQGDRLDRVTLADLGRVRRAVVSADDTALLGIPGTEASRARLEGLRLEAEQYRALKPGQGSATGRLHELEEIEARIVGLSGKSAVYRVGGVTDVEMKERMVRIENAYRSVVSALEEGVLPGGGVGFLGSMPVLAELEARDADEARGIGIVRSALTEPLRIIGENSGLSGEAVVAKVMDHANPGWGYDQESGSFCDLHARGIWDAAKVLRLALEKAASVAGTFLTTEAVVLEIPDTDAFAGFSAEWAAATREDPRV”: the protein production result was “failed”.

Consider “MAKFIMVVGTSSNSGKTVLVSGICRMLSNKGYKVAPFKSQNMSLNSRVSVEDGEIAVAQYTQAMAARAEPSVHFNPILLKPKGNFVSQVIVHGNPYEDKDYNEYRSKKDDFLVKIKESIDYLDKNYDYVVIEGAGSCCEINLLNDDIANLKVAEIAGADAILVSDIDRGGVFASIYGTVQLLPENWKKLLKGFVINKFRGNIDVLKDGFEKIEELTNIPVIGTIPYDETLVLPEEDSQALDGKRVFGNLKSPIEVNVVKFSKIANFTDVDPFSSDCLMKYIDFNENITGDILILPGTRCSTVEMDLMKKYGMDKKILEFVENGGIVLGICGGYQALGKMLFDEDFSEGDVGTISGLGLFDMETTFGNKKAIKNSTGKISIFNQNFDVSGYELHEGYSVSNETPLISLSKGFGNCGDSYDGSFKMIGDSYIFGTYFHGILENFEFRNYLVNLARSKKNLSKIEDDTYAELFNENMDKLSKIIEENLDFSKIIG”, for which the protein production result is given as “failed”.

On to “MAKGSAKKSFLDLFKITDSNDDDFDDDMFDDEDEMEDEYDDPYDEAYDSEEEYDDGSDAASDRAKASPLKSFNKYKNSRTPSGNVSKTKTAKSSQNSKLVSINSRSDRDSYDDSEVFVIKPDEFDDAQMIIDHLNRGQIIVINMEDLDLPTAQRIADFIGGASYAVNGLFQAISGNIFLATPNGTYVSGDLREELAGGSLGGEDLSKATY”, for which the protein production result is listed as “failed”.

“MAKIFVVGGSGRVASELIKNLINDGNQVFASSRHPEKIIKLDNVVPVKLDLHSDVSAWSEVFKGMDVIYFVAGSRGKDLLQTDAMGAVKTMQAAENVGVKRYIMLSSLYALQPEKWSQYESLAALTDYNIAKFFADNYLVNDTKLDYTVVQPASLTEETGTGRVSFNEIISNTNPIPDVAKVLAEVIKHNNTIGKVIMMCSGDNPIETALKDI”: the protein production entry was “failed”.

On to “MAKIKVMSIFGTRPEAIKMAPLVLALEKEPETFESTVVITAQHREMLDQVLEIFDIKPDIDLDIMKKGQTLAEITSRVMNGINEVIAAENPDIVLVHGDTTTSFAAGLATFYQQKMLGHVEAGLRTWNKYSPFPEEMNRQLTGVMADIHFSPTKQAKENLLAEGKDPATIFVTGNTAIDALKTTVQKDYHHPILENLGDNRLILMTAHRRENLGEPMQGMFEAVREIVESREDTELVYPMHLNPAVREKAMAILGGHERIHLIEPLDAIDFHNFLRKSYLVFTDSGGVQEEAPGMGVPVLVLRDTTERPEGIEAGTLKLIGTNKENLIKEALDLLDNKESHDKMAQAANPYGDGFAANRILAAIKSHFEETDRPEDFIV”, for which the protein production entry is given as “not failed”.

For the sequence “MAKKKNVSVISVEKPTWFPLTDETGAFPVYGAPITIGTAVSIKPDVTTETTPDYGDSVVQDQYVAFGGAEVTLETNGYQNEVLAEITGGKKLKGGVLRSADDIASDGAFAYRRRKSNGKYRYTIFYKGKFALTSDETSTLEGSSVSYTHPEWTGSFVDVPGLGYMYSVDEDDEGVDLEMIKNWFTEVMDPRKENTTAVTGVTLDQTELNLKVGQTATLTPTITPDNASNKKYQFRSESEAIGTVTPIQGKVTAVGEGTTEIVVTTEDGNFTAKCTLNVTTADLEHHHHHH”, the protein production result was “failed”.

With “MAKKNKRSQQKNKCLKPEKDPSTVKRLLEDPPRKKRYLQPLENPPTESYGDDEKMETEEEGEKYLGKNLPASAFIIVAAERHDSDSYSETELEKKICGSVVVAKMNDDKMVSTDTKKKYFQRILSDDDKIVLLQGMVDFQNDKGTISYDDMTGFIDTVKNIISFQANSRQFTTKIRRLKDKFVQKRNKGVDENSLANVEIYEI”, the protein production result is “failed”.

For “MAKKTSSKWYSTSAFSRLEKLGLRHPKPSPFIGNLTFFRQGFWESQMELRKLYGPLCGYYLGRRMFIVISEPDMIKQVLVENFSNFTNRMASGLEFKSVADSVLFLRDKRWEEVRGALMSAFSPEKLNEMVPLISQACDLLLAHLKRYAESGDAFDIQRCYCNYTTDVVASVAFGTPVDSWQAPEDPFVKHCKRFFENVELLGTPWLQVYNNFPALLDARILPNKNRDELNGFFNKLIRNVIALRDQQAAEERRRDFLQMVLDARHSASPMGVQDFDIVRDVFSSTGCKPNPSRQHQPSPMARPLTVDEIVGQAFIFLIAGYEIITNTLSFATYLLATNPDCQEKLLREVDVFKEKHMAPEFCSLEEGLPYLDMVIAETLRMYPPAFRFTREAAQDCEVLGQRIPAGAVLEMAVGALHHDPEHWPSPETFNPERFTAEARQQHRPFTYLPFGAGPRSCLGVRLGLLEVKLTLLHVLHKFRFQACPETQVPLQLESKSALGPKNGVYIKIVSRHHHH”, the protein production entry is reported as “failed”.

Regarding “MAKLVSIIVSVYNKEQFLEKCIESLIDLKMDKNNIEAIFVDDCSTDESVNIIKHYEKDYDFIKLIQLPENTGSPSEPRNIGMREAQGKYITLLDADDWLDKEGFPQVIEKVNKDDADLGFGQSFKHKSKNVKYHARFTSYKEASHLKPQDISKIFRAVGPPGKVFKRSLVMDHHIEFEHMKYGEDKLFFFQLFGKVDDITMSTIPMYHVNRYDENKSLVQQTSMLDKANSNLEVLDRTCHMDMSSELKHMALARMVEVDFISRFLRTKTFIKSADKEKFYAVIEKVERKIKEQGIDINTLITNPVFKQIYTLYHHADESVFVNFTKDVVNDQWRYIIQDGIVFRDFVHQYDMIKPTVVDCYPVYEGTQMMGENKYEVIRVMKPDDINIQSVSLVEINNAANEYEVTYKYSDDRIYVPHEEFEKLNKDININFNVNYGESGRSLVYASYPSFNDVFKMKRQNFKVEFVHKKNENKAQQVTNRKSEYFKRITNPMMTLKKIKIYKDVSFKEEVGSLEAGTRVEASDIQYTSKGTPRLVLDDGSIITANKDFITLINTSGLNKYITEVPKKVKVVKACKLYDSRDFKDNTVRKLKKGDVLTIRDIIYTNNSTPRLVTQEGLFLTANKDFIKIIK”, the protein production result was “failed”.

In the case of “MAKNYYDITLALAGICQSARLVQQLAHQGHCDADALHVSLNSIIDMNPSSTLAVFGGSEANLRVGLETLLGVLNASSRQGLNAELTRYTLSLMVLERKLSSAKGALDTLGNRINGLQRQLEHFDLQSETLMSAMAAIYVDVISPLGPRIQVTGSPAVLQSPQVQAKVRATLLAGIRAAVLWHQVGGGRLQLMFSRNRLTTQAKQILAHLTPEL”, the protein production entry is on record as “not failed”.

With “MAKQIIVTDSTSDLSHEYLKQHNIHVIPLSLTIDGKSYTDQVDISSSEYIDHIENDADVKTSQPPIGRFIETYEQLAQDDVEIISIHLSSGLSGTYNTAVQASHMVDGNITVIDSKSISFGLGYQIKQIVELISQGTSTEEIVKEMTQLRDNLQLFVVIGQLNQLIKGGRISKTKGLIGNIMKIKPIGTLRDGKLELVHNSRTQNSSVQYLKKEITDFVKDHKIKSIGIAHANVKDFVDKIIKSFTESFDFSQFDINVTTPVISTHTGQGAIGLVVLRDTLN”, the protein production result was “failed”.

For “MAKRKKKEVFDWEDEDQEEIIWVSKSEIKRDAEDLKQLGEKIVNLTKANLAKIPLDESLLDAIELAQRLQKEARRRQLQYIGKLFRGIDVEPIREALDKIENKHNQQQAMLHKIEKVRDELVEKGDVALTDLLNDYPNGDRQQLRNLIRSAQKELEQNKPSKAYREIYQMLKVLMLED”, the protein production result is reported as “failed”.

For “MAKRVFIGATGQNCGKTTMSVSLMHLARQKYDRVGFIKPIGPKIEGYNGLTVDMDAILMARTFGLEEDLPLMNPVSLHKNFTRDFLSGKLDCNVLKTKILEAFEILDKKYDFLIIEGAGHGGVGSVIGLSNACVAHTLNAPVIIVTDSGIGSSIDAVHLNLALYEKEDADVRMLLVNKLRADKRESILSFLGKGFPGRPLKISGGFNYSPILANPTLSHIGKLLNLPVHGDPDGQSRIIHHIHLGAASAQRVVDALQESTLIVITSSRDELIVTLSSLYHIPAFREKIVGLVIAGHIPASEISQQILDDSNIPYIRVHDSTANVFTTLMEDVAKITAEDQEKLNWIRANAENEIDFEAIDALLLEHHHHHH”, the protein production entry is recorded as “failed”.

As to “MAKSGSLSIRVVEGRALPAKDVSGSSDPYCLVKVDDEVVARTATIWRSLSPFWGEEYTVHLPLDFHHLAFYVLDEDTVGHDDIIGKISLSKEAITADPRGIDSWINLSRVDPDEEVQGEVCLAVKLLEDARGRCLRCHVRQARDLAPRDISGTSDPFARVFWGSRSLETSTIKKTRFPHWDEVLELREAPGTTSPLRVELWDWDMVGKNDFLGMVEFTPQTLQQKPPNGWFRLLPFPRAEDSGGSLGALRLKVRLTEDRVLPSQYYQPLMELLLESVQGPAEEDTTSPLALLEELASGDCRQDLATKLVKLFLGRGLAGPFLDYLTRREVARTNDPNTLFRSNSLASKSMEQFMKLVGMRYLHEVLRPVISRVFEEKKYMELDPSKMDLNRSRRISFKGTPTEEQVRETSLGLLTGYLGSVVDAIVSSAGRCPLALRLAFKQLQQCVEKRFPGMEHQVGWVLRGLMRIRLKAPCVQCSRCIDXRNRIWGHRRCLPHGELGLLSPLLQAVQSIGNLGQQLGQGKEQWLAPLHPFLLQSISRVRDFLDQLVDVDGDEEAGFPLTKLMECRGVTKEGRVGXGRWSTSXFPAFRRERQERPGGLCCSERSAAWSWRLRLTGRDIAGLTGQWHAVPGRPQVHSSIPLSCIRAVERVDEGAFQLPHVMQVVTQDGTGASHTTYLQCKNVNDLNQWLSALRKASAPNPGKLAACHPGAFRSGRWTCCLQAERSAALSFHLGVLCNLEHVTXFLCASVFSSGKWSSPLDPKAGGAALYLRNQFCLSLSTLRLKLLEDSSLDTAPDVDPGKDSSAVDGPCAEVLAQQREATTRLLQVLEDLEQAHEEFQKRG”, the protein production entry is on record as “failed”.
